Assay results reported in patent US20180355059A1.
pKd: −log10 of the molar value. Several values for one entry are separate records, joined by “and”; a condition that tells them apart may be missing. Identical values can stand only once. Values belong to the substance of their own block, whether it stands above or below them.

Columns and labels:
[1] = target: recombinant human PCSK9-His protein (Immunogen A) (human) (UniProt Q8NBP7); experiment: SPR, Biacore T200; antibody captured by anti-human Fc
[2] = target: recombinant cyno monkey PCSK9 protein (cyno monkey); experiment: ELISA, biotin-cyno PCSK9 on streptavidin plate; antibody 0.000067 nM
[3] = target: recombinant human PCSK9 protein, His-tagged (Immunogen A, hPCSK9-His) (human) (UniProt Q8NBP7); experiment: ELISA, biotin-hPCSK9-His on streptavidin plate; antibody 0.00067 nM
[4] = target: recombinant human PCSK9 protein, His-tagged (Immunogen A, hPCSK9-His) (human) (UniProt Q8NBP7); experiment: blocking ELISA, biotin-hPCSK9-His on coated LDLR ECD-His; antibody 1.6 nM
[5] = target: recombinant human PCSK9 protein, His-tagged (Immunogen A, hPCSK9-His) (human) (UniProt Q8NBP7); experiment: ELISA, biotin-hPCSK9-His on streptavidin plate; antibody 0.67 nM
[6] = target: recombinant human PCSK9 protein, His-tagged (Immunogen A, hPCSK9-His) (human) (UniProt Q8NBP7); experiment: ELISA, biotin-hPCSK9-His on streptavidin plate; antibody 0.000067 nM
[7] = target: recombinant human PCSK9 protein, His-tagged (Immunogen A, hPCSK9-His) (human) (UniProt Q8NBP7); experiment: ELISA, biotin-hPCSK9-His on streptavidin plate; antibody 0 nM (blank)
[8] = target: recombinant cyno monkey PCSK9 protein (cyno monkey); experiment: ELISA, biotin-cyno PCSK9 on streptavidin plate; antibody 6.67 nM
[9] = target: recombinant human PCSK9 protein, His-tagged (Immunogen A, hPCSK9-His) (human) (UniProt Q8NBP7); experiment: ELISA, biotin-hPCSK9-His on streptavidin plate; antibody 0.067 nM
[10] = target: recombinant cyno monkey PCSK9 protein (cyno monkey); experiment: ELISA, biotin-cyno PCSK9 on streptavidin plate; antibody 0.00067 nM
[11] = target: recombinant cyno monkey PCSK9 protein (cyno monkey); experiment: ELISA, biotin-cyno PCSK9 on streptavidin plate; antibody 0.067 nM
[12] = target: recombinant human PCSK9 protein, His-tagged (Immunogen A, hPCSK9-His) (human) (UniProt Q8NBP7); experiment: ELISA, biotin-hPCSK9-His on streptavidin plate; antibody 6.67 nM
[13] = target: recombinant human PCSK9 protein, His-tagged (Immunogen A, hPCSK9-His) (human) (UniProt Q8NBP7); experiment: blocking ELISA, biotin-hPCSK9-His on coated LDLR ECD-His; antibody 200 nM
[14] = target: recombinant cyno monkey PCSK9 protein (cyno monkey); experiment: ELISA, biotin-cyno PCSK9 on streptavidin plate; antibody 66.67 nM
[15] = target: recombinant human PCSK9 protein, His-tagged (Immunogen A, hPCSK9-His) (human) (UniProt Q8NBP7); experiment: blocking ELISA, biotin-hPCSK9-His on coated LDLR ECD-His; antibody 0.32 nM
[16] = target: recombinant human PCSK9 protein, His-tagged (Immunogen A, hPCSK9-His) (human) (UniProt Q8NBP7); experiment: blocking ELISA, biotin-hPCSK9-His on coated LDLR ECD-His; antibody 8 nM
[17] = target: recombinant cyno monkey PCSK9 protein (cyno monkey); experiment: ELISA, biotin-cyno PCSK9 on streptavidin plate; antibody 0.67 nM
[18] = target: recombinant cyno monkey PCSK9 protein (cyno monkey); experiment: ELISA, biotin-cyno PCSK9 on streptavidin plate; antibody 0.0067 nM
[19] = target: recombinant human PCSK9 protein, His-tagged (Immunogen A, hPCSK9-His) (human) (UniProt Q8NBP7); experiment: blocking ELISA, biotin-hPCSK9-His on coated LDLR ECD-His; antibody 0.01 nM
[20] = target: recombinant human PCSK9 protein, His-tagged (Immunogen A, hPCSK9-His) (human) (UniProt Q8NBP7); experiment: blocking ELISA, biotin-hPCSK9-His on coated LDLR ECD-His; antibody 40 nM
[21] = target: recombinant human PCSK9 protein, His-tagged (Immunogen A, hPCSK9-His) (human) (UniProt Q8NBP7); experiment: ELISA, biotin-hPCSK9-His on streptavidin plate; antibody 0.0067 nM
[22] = target: recombinant human PCSK9 protein, His-tagged (Immunogen A, hPCSK9-His) (human) (UniProt Q8NBP7); experiment: ELISA, biotin-hPCSK9-His on streptavidin plate; antibody 66.67 nM
[23] = target: recombinant cyno monkey PCSK9 protein (cyno monkey); experiment: ELISA, biotin-cyno PCSK9 on streptavidin plate; antibody 0 nM (blank)
[24] = target: recombinant human PCSK9 protein, His-tagged (Immunogen A, hPCSK9-His) (human) (UniProt Q8NBP7); experiment: blocking ELISA, biotin-hPCSK9-His on coated LDLR ECD-His; antibody 0.06 nM
[25] = target: recombinant human PCSK9^D374Y protein (human) (UniProt Q8NBP7); experiment: ELISA of PCSK9^D374Y binding to LDLR ECD; antibody 0.06 nM
[26] = target: recombinant human PCSK9-His protein (Immunogen A) (human) (UniProt Q8NBP7); experiment: ELISA of PCSK9 binding to LDLR ECD; antibody 40 nM
[27] = target: recombinant cyno monkey PCSK9 protein (cyno monkey); experiment: ELISA; antibody 0.00067 nM
[28] = target: recombinant cyno monkey PCSK9 protein (cyno monkey); experiment: ELISA; antibody 0.67 nM
[29] = target: recombinant cyno monkey PCSK9 protein (cyno monkey); experiment: ELISA; antibody 66.67 nM
[30] = target: recombinant human PCSK9-His protein (Immunogen A) (human) (UniProt Q8NBP7); experiment: ELISA; antibody 66.67 nM
[31] = target: recombinant human PCSK9-His protein (Immunogen A) (human) (UniProt Q8NBP7); experiment: ELISA of PCSK9 binding to LDLR ECD; antibody 8 nM
[32] = target: recombinant cyno monkey PCSK9 protein (cyno monkey); experiment: ELISA; antibody 6.67 nM
[33] = target: recombinant cyno monkey PCSK9 protein (cyno monkey); experiment: ELISA; antibody 0 nM
[34] = target: recombinant human PCSK9-His protein (Immunogen A) (human) (UniProt Q8NBP7); experiment: ELISA of PCSK9 binding to LDLR ECD; antibody 200 nM
[35] = target: recombinant human PCSK9-His protein (Immunogen A) (human) (UniProt Q8NBP7); experiment: ELISA of PCSK9 binding to LDLR ECD; antibody 0 nM
[36] = target: recombinant cyno monkey PCSK9 protein (cyno monkey); experiment: ELISA; antibody 0.000067 nM
[37] = target: recombinant cyno monkey PCSK9 protein (cyno monkey); experiment: ELISA; antibody 0 nM; remark: listed apart in the source

Sequence of recombinant cyno monkey PCSK9 protein (cyno monkey) (A8T666 31-692 limits assumed): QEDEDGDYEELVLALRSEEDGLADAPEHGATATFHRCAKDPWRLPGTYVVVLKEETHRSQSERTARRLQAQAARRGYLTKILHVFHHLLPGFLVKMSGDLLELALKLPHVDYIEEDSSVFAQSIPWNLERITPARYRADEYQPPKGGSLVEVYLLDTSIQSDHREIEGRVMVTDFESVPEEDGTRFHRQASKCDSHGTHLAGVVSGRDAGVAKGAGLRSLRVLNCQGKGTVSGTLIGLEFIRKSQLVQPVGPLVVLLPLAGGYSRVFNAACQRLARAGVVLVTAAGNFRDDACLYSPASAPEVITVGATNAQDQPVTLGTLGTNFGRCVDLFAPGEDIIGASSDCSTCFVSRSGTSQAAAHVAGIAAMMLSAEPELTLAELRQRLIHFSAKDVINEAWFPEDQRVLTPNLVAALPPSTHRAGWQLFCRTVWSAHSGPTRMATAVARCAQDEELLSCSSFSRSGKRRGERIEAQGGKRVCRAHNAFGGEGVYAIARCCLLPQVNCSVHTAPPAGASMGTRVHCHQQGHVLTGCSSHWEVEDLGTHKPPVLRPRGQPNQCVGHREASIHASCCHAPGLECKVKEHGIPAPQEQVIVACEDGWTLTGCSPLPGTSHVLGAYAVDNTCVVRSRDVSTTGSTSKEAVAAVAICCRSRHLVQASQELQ

pKd [1]: > 9.91
koff [1]: 0.000822 s⁻¹
kon [1]: < 100000 M⁻¹ s⁻¹
Substance: Evolocumab, Amgen (antibody)

OD450 nm [2]: 0.19 OD450 nm
OD450 nm [3]: 0.18 OD450 nm and 0.09 OD450 nm
OD450 nm (PCSK9 bound to LDLR) [4]: 1.09 OD450 nm and 1.12 OD450 nm
OD450 nm [5]: 0.09 OD450 nm
OD450 nm [6]: 0.11 OD450 nm
OD450 nm [7]: 0.1 OD450 nm
OD450 nm [8]: 0.17 OD450 nm
OD450 nm [9]: 0.12 OD450 nm and 0.09 OD450 nm
OD450 nm [10]: 0.16 OD450 nm
OD450 nm [11]: 0.12 OD450 nm
OD450 nm [12]: 0.1 OD450 nm
OD450 nm (PCSK9 bound to LDLR) [13]: 1.22 OD450 nm and 1.14 OD450 nm
OD450 nm [14]: 0.18 OD450 nm
OD450 nm (PCSK9 bound to LDLR) [15]: 1.2 OD450 nm and 1.13 OD450 nm
OD450 nm (PCSK9 bound to LDLR) [16]: 1.02 OD450 nm and 1.07 OD450 nm
OD450 nm [17]: 0.12 OD450 nm
OD450 nm [18]: 0.12 OD450 nm
OD450 nm (PCSK9 bound to LDLR) [19]: 1.22 OD450 nm and 1.18 OD450 nm
OD450 nm (PCSK9 bound to LDLR) [20]: 1.01 OD450 nm and 1.11 OD450 nm
OD450 nm [21]: 0.18 OD450 nm and 0.1 OD450 nm
OD450 nm [22]: 0.11 OD450 nm
OD450 nm [23]: 0.15 OD450 nm
OD450 nm (PCSK9 bound to LDLR) [24]: 1.26 OD450 nm and 1.2 OD450 nm
Substance: IgG control (rat IgG) (antibody)

pKd [1]: 9.40
koff [1]: 0.000318 s⁻¹
kon [1]: 806000 M⁻¹ s⁻¹
Substance: Alirocumab, Regeneron (antibody)

OD450 nm [25]: 1.57 OD450 nm
OD450 nm [26]: 1.43 OD450 nm
OD450 nm [27]: 0.07 OD450 nm
OD450 nm [28]: 0.08 OD450 nm
OD450 nm [29]: 0.81 OD450 nm
OD450 nm [30]: 0.97 OD450 nm
OD450 nm [31]: 1.76 OD450 nm
OD450 nm [32]: 0.15 OD450 nm
OD450 nm [33]: 0.07 OD450 nm
OD450 nm [34]: 1.41 OD450 nm
OD450 nm [35]: 2.4 OD450 nm
OD450 nm [36]: 0.07 OD450 nm
OD450 nm [37]: 0.06 OD450 nm
Substance: IgG control (human IgG) (antibody)
